Measured values taken from publication PMC2739136.

What was measured:
Test in all cases: pull-down
MBP-TraR A222S, P33905 = target: T1, MBP-TraR A222S, P33905
T1 chain: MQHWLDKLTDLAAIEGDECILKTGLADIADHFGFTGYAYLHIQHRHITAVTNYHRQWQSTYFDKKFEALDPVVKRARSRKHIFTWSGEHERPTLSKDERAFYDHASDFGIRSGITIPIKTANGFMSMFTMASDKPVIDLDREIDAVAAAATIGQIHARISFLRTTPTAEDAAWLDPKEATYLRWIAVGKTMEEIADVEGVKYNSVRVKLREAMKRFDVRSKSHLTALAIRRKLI

MBP-TraR S160F, P33905 = target: T2, MBP-TraR S160F, P33905
T2 chain: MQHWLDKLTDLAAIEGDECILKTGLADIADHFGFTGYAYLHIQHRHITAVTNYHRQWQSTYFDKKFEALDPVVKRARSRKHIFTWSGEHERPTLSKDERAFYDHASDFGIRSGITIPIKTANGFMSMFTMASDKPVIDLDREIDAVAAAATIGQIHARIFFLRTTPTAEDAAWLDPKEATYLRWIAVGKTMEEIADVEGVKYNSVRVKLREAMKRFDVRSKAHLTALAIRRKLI

MBP-TraR Q154E, P33905 = target: T3, MBP-TraR Q154E, P33905
T3 chain: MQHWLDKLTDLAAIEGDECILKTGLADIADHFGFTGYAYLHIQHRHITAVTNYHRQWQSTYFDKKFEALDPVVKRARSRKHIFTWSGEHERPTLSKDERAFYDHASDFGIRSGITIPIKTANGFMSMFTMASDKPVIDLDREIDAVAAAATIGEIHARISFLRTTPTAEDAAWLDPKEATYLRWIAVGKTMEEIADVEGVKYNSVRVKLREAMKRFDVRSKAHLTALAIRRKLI

MBP-TraR A150E, P33905 = target: T4, MBP-TraR A150E, P33905
T4 chain: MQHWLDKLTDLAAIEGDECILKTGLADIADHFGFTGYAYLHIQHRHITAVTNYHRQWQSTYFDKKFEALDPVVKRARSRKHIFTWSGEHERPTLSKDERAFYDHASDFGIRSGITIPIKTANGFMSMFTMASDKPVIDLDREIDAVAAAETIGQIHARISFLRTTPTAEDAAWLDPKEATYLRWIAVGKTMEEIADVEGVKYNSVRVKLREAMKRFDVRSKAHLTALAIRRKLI

MBP-TraR S160A, P33905 = target: T5, MBP-TraR S160A, P33905
T5 chain: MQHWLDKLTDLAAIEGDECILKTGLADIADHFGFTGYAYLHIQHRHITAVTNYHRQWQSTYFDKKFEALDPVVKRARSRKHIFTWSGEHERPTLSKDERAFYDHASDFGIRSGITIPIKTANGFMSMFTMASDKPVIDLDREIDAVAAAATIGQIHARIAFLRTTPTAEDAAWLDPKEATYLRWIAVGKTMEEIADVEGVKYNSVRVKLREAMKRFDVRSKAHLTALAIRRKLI

MBP-TraR A149E, P33905 = target: T6, MBP-TraR A149E, P33905
T6 chain: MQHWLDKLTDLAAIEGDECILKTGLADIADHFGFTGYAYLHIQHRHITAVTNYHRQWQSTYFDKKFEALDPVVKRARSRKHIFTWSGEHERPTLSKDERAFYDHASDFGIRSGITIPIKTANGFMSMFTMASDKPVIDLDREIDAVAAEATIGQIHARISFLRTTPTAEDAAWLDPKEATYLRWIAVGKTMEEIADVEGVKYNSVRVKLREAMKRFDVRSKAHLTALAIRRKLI

MBP-TraR Q154A, P33905 = target: T7, MBP-TraR Q154A, P33905
T7 chain: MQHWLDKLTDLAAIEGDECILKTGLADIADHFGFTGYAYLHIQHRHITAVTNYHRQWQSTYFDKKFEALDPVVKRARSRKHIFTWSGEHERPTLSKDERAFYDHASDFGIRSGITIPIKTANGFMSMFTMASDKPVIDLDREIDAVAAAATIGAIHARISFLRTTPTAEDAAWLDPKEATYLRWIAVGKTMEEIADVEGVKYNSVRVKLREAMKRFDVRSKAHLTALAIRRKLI

MBP-TraR T225S, P33905 = target: T8, MBP-TraR T225S, P33905
T8 chain: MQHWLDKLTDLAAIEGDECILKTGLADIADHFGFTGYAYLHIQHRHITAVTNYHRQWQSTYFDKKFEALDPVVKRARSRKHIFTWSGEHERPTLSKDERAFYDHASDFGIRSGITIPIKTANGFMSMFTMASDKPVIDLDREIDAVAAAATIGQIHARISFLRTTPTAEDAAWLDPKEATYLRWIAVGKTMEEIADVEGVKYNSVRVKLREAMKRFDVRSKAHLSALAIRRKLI

B1: native TraR (wild type) (protein)
chain: MQHWLDKLTDLAAIEGDECILKTGLADIADHFGFTGYAYLHIQHRHITAVTNYHRQWQSTYFDKKFEALDPVVKRARSRKHIFTWSGEHERPTLSKDERAFYDHASDFGIRSGITIPIKTANGFMSMFTMASDKPVIDLDREIDAVAAAATIGQIHARISFLRTTPTAEDAAWLDPKEATYLRWIAVGKTMEEIADVEGVKYNSVRVKLREAMKRFDVRSKAHLTALAIRRKLI
- heterodimer formation (% of wild type) (% of wild type) (MBP-TraR A222S, P33905): 53
- heterodimer formation (% of wild type) (% of wild type) (MBP-TraR S160F, P33905): 69
- heterodimer formation (% of wild type) (% of wild type) (MBP-TraR Q154E, P33905): 25
- heterodimer formation (% of wild type) (% of wild type) (MBP-TraR A150E, P33905): 14
- heterodimer formation (% of wild type) (% of wild type) (MBP-TraR S160A, P33905): 100
- heterodimer formation (% of wild type) (% of wild type) (MBP-TraR A149E, P33905): 12
- heterodimer formation (% of wild type) (% of wild type) (MBP-TraR Q154A, P33905): 27
- heterodimer formation (% of wild type) (% of wild type) (MBP-TraR T225S, P33905): 43
